Five substances from publication PMC13186983 can be followed below.

For test [1], the target named is YA6-mutant 26S proteasome, reconstituted, LD655 acceptor-labeled on Rpt1, biotinylated core (S. cerevisiae | yeast) (UniProt P33299).
For test [2], the target named is YA4-mutant 26S proteasome, reconstituted, LD655 acceptor-labeled on Rpt1, biotinylated core (S. cerevisiae | yeast) (UniProt P33299).
Test [3] concerns the target wild-type 26S proteasome, reconstituted, LD655 acceptor-labeled on Rpt1, biotinylated core (S. cerevisiae | yeast) (UniProt P33299).
Test [4] deals with T1, Rpt3 (ATPase subunit of the yeast 26S proteasome) (S. cerevisiae) (UniProt P33298).
T1 sequence: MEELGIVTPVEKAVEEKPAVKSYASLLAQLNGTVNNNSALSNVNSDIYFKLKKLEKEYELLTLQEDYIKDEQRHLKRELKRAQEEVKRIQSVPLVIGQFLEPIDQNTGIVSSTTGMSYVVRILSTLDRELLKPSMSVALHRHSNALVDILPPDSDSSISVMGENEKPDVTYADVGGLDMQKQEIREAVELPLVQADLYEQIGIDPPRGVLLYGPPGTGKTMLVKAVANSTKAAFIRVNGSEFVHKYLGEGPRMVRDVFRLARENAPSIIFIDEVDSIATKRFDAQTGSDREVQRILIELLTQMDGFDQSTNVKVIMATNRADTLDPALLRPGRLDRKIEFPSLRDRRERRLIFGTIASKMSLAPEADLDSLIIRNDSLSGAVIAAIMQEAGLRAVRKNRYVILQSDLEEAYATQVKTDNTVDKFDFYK

In test [5] the target is T1, Rpt3 (ATPase subunit of the yeast 26S proteasome) (S. cerevisiae). This is another data set of the same source.
Test [6] concerns the target YA6-mutant 26S proteasome, reconstituted, LD655 acceptor-labeled on Rpt1, biotinylated core (S. cerevisiae | yeast) (UniProt P33299). This is another data set of the same source.
For test [7], the target named is YA4-mutant 26S proteasome, reconstituted, LD655 acceptor-labeled on Rpt1, biotinylated core (S. cerevisiae | yeast) (UniProt P33299). The source holds these as a separate data set.
The target of test [8] is wild-type 26S proteasome, reconstituted, LD655 acceptor-labeled on Rpt1, biotinylated core (S. cerevisiae | yeast) (UniProt P33299). The source holds these as a separate data set.

Consider “ubiquitinated titin I27^V15P substrate, LD555 donor-labeled (from UniProt P0CG63 1-76)”, for which the combined time constant for substrate binding, tail insertion and engagement; bulk stopped-flow FRET, Cy3-labeled proteasome with oPA, 2 µM Cy5-labeled substrate, 25 °C is 18 s in test [1], 14.3 s in test [2] and 6.8 s in test [3].

For “Rpt6 K141A (from UniProt Q01939 1-405) (natural protein)”, the basal ATPase rate of the reconstituted proteasome with Rpt6 K141A (NADH-coupled assay) in test [4] is 87 min⁻¹.

Substance “Rpt6 with the pore-1 loop Tyr to Ala mutation (YA6) (from UniProt Q01939 1-405) (natural protein)” displayed a basal ATPase rate of the reconstituted YA6 proteasome (NADH-coupled assay) in test [5] of 101 min⁻¹.

“Rpt6 E140A (from UniProt Q01939 1-405) (natural protein)” gave a basal ATPase rate of the reconstituted proteasome with Rpt6 E140A (NADH-coupled assay) in test [4] of 108 min⁻¹.

As for “ubiquitinated titin I27 substrate, LD555 donor-labeled (from UniProt P0CG63 1-76)”, the frequency of terminal release of titin I27 during the unfolding dwell, single-molecule FRET in test [6] worked out at 33.3%; in test [7] it was 37.5%; in test [8], 18.1%.
